Measurements: paper PMC3038193

Target: ApoE2 (C112S, C158S, A102C), labeled with Alexa488 or Alexa546 at position 102
Assay: FRET or BRET

ApoE2 (C112S, C158S, A102C), labeled with Alexa488 or Alexa546 at position 102 (natural protein)
k−1 (dissociation, dimer to monomers): 0.00066 s⁻¹
k−2 (dissociation, tetramer to dimers): 0.0036 s⁻¹
